Laboratory results from patent US20170290876A1 (Novartis, published 2017).
Changes are numbered by the printed parent chain. Names and notes keep the numbering of the source.

Experiments:
human VEGF [1] = target: T1, human VEGF (human, UniProt P15692 207-395, biotinylated (site not stated)); assay: Biacore SPR, hVEGF
T1 construct: Biotinylated human VEGF generated internally; also called hVEGF; hVEGF-biotin
T1 sequence: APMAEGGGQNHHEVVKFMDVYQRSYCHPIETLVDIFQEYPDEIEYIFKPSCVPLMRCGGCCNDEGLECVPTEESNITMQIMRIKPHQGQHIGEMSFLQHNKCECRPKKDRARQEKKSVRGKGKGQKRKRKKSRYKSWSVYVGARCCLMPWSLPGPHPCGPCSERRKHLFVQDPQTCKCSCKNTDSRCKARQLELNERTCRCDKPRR

human VEGF [2] = target: T1, human VEGF; assay: Biacore SPR, hVEGF (second row labelled Y32H); the sign of the exponent is misprinted (kd/KD of the same row = 4.9e6); second row labelled Y32H (r159), not r156
Experimental: (§1) At first, individual CDR residues were substituted and the affinity for hVEGF was measured by Biacore as described below. […] HC8T, and HC9T and the affinity of the resulting peptide-tagged Fab for both HA and hVEGF was measured by Biacore as described below (Table 17).
(§2) Affinity of optimized HA-binding peptide tags for HA and human VEGF were measured by Biacore. […] In order to determine target kinetics, two different formats were utilized. […] The second format is an anti-fab capture method in which the fab protein samples are captured and the target proteins flowed over at various concentrations.
(§3) The sample compartment which includes the analytes, ligands, and regeneration buffer, is kept at 15° C. All other running conditions were carried out at either 25° C. or 37° C. in 1×HBSE+P buffer. […] Data was collected at 10 Hz and analyzed using the Biacore T200 Evaluation Software (GE Healthcare®). This program uses a global fitting analysis method for the determination of rate and affinity constants for each interaction.

human VEGF [3] = target: T1, human VEGF; assay: Biacore SPR, hVEGF (second row labelled Y32H)
Experimental: as §1, §2, §3

human VEGF [4] = target: T1, human VEGF; assay: Biacore SPR, hVEGF; the minus sign of the exponent is missing in print (kd/ka of the same row = 3.05e-12)
Experimental: as §1, §2, §3

human Factor P [5] = target: T2, human Factor P (human, UniProt P27918 28-469, biotinylated (site not stated)); assay: Biacore SPR; affinity of NVS71T against untagged NVS71
T2 construct: also called Factor P-biotin; Hu factor P-biotin
T2 sequence (P27918 28-469 limits assumed): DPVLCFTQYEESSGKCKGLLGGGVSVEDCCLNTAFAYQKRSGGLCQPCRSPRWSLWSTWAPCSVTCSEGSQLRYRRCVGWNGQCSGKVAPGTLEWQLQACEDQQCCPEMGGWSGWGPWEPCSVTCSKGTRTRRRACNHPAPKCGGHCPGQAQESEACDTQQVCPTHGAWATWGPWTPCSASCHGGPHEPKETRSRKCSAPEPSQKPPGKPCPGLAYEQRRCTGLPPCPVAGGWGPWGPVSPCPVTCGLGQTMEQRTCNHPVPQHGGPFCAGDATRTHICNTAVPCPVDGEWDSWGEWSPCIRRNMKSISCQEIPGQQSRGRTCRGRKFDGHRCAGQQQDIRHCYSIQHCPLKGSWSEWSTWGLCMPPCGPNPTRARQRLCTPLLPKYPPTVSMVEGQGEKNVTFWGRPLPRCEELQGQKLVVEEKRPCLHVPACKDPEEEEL

human Factor P [6] = target: T2, human Factor P; assay: Biacore SPR, Hu factor P-biotin, 37 C
human Factor P [7] = target: T2, human Factor P; assay: Biacore SPR, Factor P-biotin, 25 C
human TNFα [8] = target: T3, human TNFα (human, UniProt P01375 77-233, biotinylated (site not stated)); assay: Biacore SPR, TNFα-biotin, 37 C
T3 construct: also called TNFα-biotin; Hu TNFα-biotin
T3 sequence (P01375 77-233 limits assumed): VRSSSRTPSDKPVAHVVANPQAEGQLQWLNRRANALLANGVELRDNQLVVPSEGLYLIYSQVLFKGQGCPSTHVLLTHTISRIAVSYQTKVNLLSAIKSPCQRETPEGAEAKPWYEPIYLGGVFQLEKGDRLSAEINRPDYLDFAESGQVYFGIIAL

human TNFα [9] = target: T3, human TNFα; assay: Biacore SPR, Hu TNFα-biotin, 37 C
human TNFα [10] = target: T3, human TNFα; assay: Biacore SPR; affinity of NVS73T against untagged NVS73

B1: NVS4 heavy chain variant Y32H (Fab, V domains shown)
VH: EVQLVESGGGLVQPGGSLRLSCTASGFSLTDHYYMTWVRQAPGKGLEWVGFIDPDDDPYYATWAKGRFTISRDNSKNTLYLQMNSLRAEDTAVYYCAGGDHNSGWGLDIWGQGTLVTVSS
VL: EIVMTQSPSTLSASVGDRVIITCQASEIIHSWLAWYQQKPGKAPKLLIYLASTLASGVPSRFSGSGSGAEFTLTISSLQPDDFATYYCQNVYLASTNGANFGQGTKLTVLK
notes: CDR variant of NVS4; The label Y32H is printed in two rows (r156, r159) with different values
- Kd (human VEGF [1]): 0.0204 nM
- koff (human VEGF [1]): 0.000112 s⁻¹
- kon (human VEGF [1]): 5.49e+06 M⁻¹ s⁻¹
- kon (human VEGF [2]): 4.91e+06 M⁻¹ s⁻¹
- Kd (human VEGF [3]): 0.169 nM
- koff (human VEGF [3]): 0.000829 s⁻¹

B2: NVS4 light chain variant E27Q (Fab, V domains shown)
VH: B1 VH with H32Y
VL: B1 VL with E27Q
notes: CDR variant of NVS4
- koff (human VEGF [1]): 1.64e-05 s⁻¹
- kon (human VEGF [1]): 5.37e+06 M⁻¹ s⁻¹
- Kd (human VEGF [4]): 0.00306 nM

B3: NVS71T (Fab, V domains shown)
VH: EVQLVQSGAEVKKPGSSVKVSCKASGGTFSSYAISWVRQAPGQGLEWMGRIIPIFGTANYAQKFQGRVTITADESTSTAYMELSSLRSEDTAVYYCARHGGYSFDSWGQGTLVTVSS
VL: SYELTQPPSVSVAPGQTARISCSGDNLGSKYVDWYQQKPGQAPVLVIYSDNNRPSGIPERFSGSNSGNTATLTISGTQAEDEADYYCQTYTSGNNYLVFGGGTKLTVLG
notes: Anti-Factor P Fab with HA tag at heavy chain C-terminus
- Fold improvement (human Factor P [5]): 5.7 fold
- Kd (human Factor P [6]): 0.0955 nM
- koff (human Factor P [6]): 0.000412 s⁻¹
- kon (human Factor P [6]): 4.31e+06 M⁻¹ s⁻¹
- Kd (human Factor P [7]): 0.0955 nM
- koff (human Factor P [7]): 0.000412 s⁻¹
- kon (human Factor P [7]): 4.31e+06 M⁻¹ s⁻¹

B4: NVS73T (Fab, V domains shown)
VH: EVQLVESGGGSVQPGGSLRLSCTASGFTISRSYWICWVRQAPGKGLEWVGCIYGDNDITPLYANWAKGRFTISRDTSKNTVYLQMNSLRAEDTATYYCARLGYADYAYDLWGQGTTVTVSS
VL: EIVMTQSPSTLSASVGDRVIITCQSSQSVYGNIWMAWYQQKPGRAPKLLIYQASKLASGVPSRFSGSGSGAEFTLTISSLQPDDFATYYCQGNFNTGDRYAFGQGTKLTVLK
notes: Anti-TNFα Fab with HA tag at heavy chain C-terminus
- Kd (human TNFα [8]): 0.000742 nM
- koff (human TNFα [8]): 2.47e-05 s⁻¹
- kon (human TNFα [8]): 3.33e+07 M⁻¹ s⁻¹
- Kd (human TNFα [9]): 0.000742 nM
- koff (human TNFα [9]): 2.47e-05 s⁻¹
- kon (human TNFα [9]): 3.33e+07 M⁻¹ s⁻¹
- Fold improvement (human TNFα [10]): 35 fold
